Laboratory results taken from US20180148493A1.

Target: HLA-A2 (Homo sapiens)

AIIRILQQL (modifications not checked) […] gave an IC50 of 385 nM.
